Biological target: HPV16 L1 pentamers (L1 assembly mutant C428S) (HPV16)
Test: electron microscopy

Substance: HPV16 L1 pentamers (L1 assembly mutant C428S) (natural protein)
- stoichiometry N: 5

Reference: paper PMC4934132
